Measured values: US20250262210A1 (TRUSTEES OF COLUMBIA UNIVERSITY IN THE CITY OF NEW YORK, published 2025)

Key:
Assay in all cases: IP/MS, LZTR1 wild type-FLAG, U87
[1] = target: VPS13A (human, UniProt Q96RL7 1-3174, limits assumed)
Method in brief: (§1)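 Gel slices were reduced with 5 mM DTT, alkylated with 11 mM IAA and digested overnight at 37° C. with trypsin. Peptides were analysed on an Orbitrap Fusion Tribrid by LC-MS/MS.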

[2] = target: T1, NCAPG2 (human, UniProt Q86XI2 1-1143, limits assumed)
T1 sequence (looked up): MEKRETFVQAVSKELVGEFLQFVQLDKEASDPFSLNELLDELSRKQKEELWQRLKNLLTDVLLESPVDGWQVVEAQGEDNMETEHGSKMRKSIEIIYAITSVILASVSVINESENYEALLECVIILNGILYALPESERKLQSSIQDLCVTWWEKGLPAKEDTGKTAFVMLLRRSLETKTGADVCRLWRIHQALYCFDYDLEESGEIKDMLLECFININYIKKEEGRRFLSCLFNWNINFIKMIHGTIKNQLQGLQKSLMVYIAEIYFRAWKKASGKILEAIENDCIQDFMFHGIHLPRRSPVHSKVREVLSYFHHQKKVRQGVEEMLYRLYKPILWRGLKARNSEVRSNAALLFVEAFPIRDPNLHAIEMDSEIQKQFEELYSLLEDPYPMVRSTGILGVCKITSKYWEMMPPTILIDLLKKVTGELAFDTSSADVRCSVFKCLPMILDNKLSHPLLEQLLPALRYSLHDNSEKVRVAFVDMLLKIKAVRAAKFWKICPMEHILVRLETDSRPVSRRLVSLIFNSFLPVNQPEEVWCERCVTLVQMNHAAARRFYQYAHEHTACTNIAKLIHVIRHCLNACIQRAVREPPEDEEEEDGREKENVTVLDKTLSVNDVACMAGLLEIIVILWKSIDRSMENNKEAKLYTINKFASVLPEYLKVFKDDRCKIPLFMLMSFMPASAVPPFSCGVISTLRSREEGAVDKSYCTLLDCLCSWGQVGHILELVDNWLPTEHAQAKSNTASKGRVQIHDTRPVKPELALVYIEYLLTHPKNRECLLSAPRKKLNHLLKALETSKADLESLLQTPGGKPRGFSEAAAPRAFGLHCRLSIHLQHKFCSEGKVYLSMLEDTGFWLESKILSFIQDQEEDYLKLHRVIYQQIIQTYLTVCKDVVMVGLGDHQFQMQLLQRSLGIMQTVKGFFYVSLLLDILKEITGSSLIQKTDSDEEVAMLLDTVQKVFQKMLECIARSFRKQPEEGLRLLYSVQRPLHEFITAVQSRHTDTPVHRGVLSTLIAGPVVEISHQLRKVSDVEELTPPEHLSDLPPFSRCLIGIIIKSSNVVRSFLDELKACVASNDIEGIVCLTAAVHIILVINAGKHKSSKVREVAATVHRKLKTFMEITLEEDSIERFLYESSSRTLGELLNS
Method in brief: as §1

[3] = target: T2, LONP2 (human, UniProt Q86WA8 2-852, limits assumed)
T2 sequence (looked up): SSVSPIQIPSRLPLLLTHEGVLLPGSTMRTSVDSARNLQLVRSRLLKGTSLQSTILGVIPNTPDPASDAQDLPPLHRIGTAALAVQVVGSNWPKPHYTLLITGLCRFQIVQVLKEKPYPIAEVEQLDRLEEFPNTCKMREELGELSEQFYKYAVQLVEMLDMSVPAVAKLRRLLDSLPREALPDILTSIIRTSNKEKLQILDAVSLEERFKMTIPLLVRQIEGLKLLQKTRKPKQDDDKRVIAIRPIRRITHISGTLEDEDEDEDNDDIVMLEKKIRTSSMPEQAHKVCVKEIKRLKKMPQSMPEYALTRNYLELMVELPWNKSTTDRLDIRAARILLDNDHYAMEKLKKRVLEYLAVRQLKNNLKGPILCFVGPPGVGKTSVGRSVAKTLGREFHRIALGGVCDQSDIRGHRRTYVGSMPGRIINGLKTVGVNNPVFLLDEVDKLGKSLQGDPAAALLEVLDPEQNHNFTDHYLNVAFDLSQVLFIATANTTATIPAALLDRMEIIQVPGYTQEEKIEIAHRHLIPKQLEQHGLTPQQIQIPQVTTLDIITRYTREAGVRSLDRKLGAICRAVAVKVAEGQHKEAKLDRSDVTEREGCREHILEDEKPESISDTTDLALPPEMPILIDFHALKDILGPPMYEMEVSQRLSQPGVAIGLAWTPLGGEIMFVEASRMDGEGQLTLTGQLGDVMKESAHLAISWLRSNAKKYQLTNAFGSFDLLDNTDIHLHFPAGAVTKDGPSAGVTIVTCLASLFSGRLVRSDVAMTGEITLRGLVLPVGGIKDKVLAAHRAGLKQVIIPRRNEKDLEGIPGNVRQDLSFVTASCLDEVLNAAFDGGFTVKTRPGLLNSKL
Method in brief: as §1

Sequence of VPS13A (Q96RL7 whole entry, the tested form may be a part): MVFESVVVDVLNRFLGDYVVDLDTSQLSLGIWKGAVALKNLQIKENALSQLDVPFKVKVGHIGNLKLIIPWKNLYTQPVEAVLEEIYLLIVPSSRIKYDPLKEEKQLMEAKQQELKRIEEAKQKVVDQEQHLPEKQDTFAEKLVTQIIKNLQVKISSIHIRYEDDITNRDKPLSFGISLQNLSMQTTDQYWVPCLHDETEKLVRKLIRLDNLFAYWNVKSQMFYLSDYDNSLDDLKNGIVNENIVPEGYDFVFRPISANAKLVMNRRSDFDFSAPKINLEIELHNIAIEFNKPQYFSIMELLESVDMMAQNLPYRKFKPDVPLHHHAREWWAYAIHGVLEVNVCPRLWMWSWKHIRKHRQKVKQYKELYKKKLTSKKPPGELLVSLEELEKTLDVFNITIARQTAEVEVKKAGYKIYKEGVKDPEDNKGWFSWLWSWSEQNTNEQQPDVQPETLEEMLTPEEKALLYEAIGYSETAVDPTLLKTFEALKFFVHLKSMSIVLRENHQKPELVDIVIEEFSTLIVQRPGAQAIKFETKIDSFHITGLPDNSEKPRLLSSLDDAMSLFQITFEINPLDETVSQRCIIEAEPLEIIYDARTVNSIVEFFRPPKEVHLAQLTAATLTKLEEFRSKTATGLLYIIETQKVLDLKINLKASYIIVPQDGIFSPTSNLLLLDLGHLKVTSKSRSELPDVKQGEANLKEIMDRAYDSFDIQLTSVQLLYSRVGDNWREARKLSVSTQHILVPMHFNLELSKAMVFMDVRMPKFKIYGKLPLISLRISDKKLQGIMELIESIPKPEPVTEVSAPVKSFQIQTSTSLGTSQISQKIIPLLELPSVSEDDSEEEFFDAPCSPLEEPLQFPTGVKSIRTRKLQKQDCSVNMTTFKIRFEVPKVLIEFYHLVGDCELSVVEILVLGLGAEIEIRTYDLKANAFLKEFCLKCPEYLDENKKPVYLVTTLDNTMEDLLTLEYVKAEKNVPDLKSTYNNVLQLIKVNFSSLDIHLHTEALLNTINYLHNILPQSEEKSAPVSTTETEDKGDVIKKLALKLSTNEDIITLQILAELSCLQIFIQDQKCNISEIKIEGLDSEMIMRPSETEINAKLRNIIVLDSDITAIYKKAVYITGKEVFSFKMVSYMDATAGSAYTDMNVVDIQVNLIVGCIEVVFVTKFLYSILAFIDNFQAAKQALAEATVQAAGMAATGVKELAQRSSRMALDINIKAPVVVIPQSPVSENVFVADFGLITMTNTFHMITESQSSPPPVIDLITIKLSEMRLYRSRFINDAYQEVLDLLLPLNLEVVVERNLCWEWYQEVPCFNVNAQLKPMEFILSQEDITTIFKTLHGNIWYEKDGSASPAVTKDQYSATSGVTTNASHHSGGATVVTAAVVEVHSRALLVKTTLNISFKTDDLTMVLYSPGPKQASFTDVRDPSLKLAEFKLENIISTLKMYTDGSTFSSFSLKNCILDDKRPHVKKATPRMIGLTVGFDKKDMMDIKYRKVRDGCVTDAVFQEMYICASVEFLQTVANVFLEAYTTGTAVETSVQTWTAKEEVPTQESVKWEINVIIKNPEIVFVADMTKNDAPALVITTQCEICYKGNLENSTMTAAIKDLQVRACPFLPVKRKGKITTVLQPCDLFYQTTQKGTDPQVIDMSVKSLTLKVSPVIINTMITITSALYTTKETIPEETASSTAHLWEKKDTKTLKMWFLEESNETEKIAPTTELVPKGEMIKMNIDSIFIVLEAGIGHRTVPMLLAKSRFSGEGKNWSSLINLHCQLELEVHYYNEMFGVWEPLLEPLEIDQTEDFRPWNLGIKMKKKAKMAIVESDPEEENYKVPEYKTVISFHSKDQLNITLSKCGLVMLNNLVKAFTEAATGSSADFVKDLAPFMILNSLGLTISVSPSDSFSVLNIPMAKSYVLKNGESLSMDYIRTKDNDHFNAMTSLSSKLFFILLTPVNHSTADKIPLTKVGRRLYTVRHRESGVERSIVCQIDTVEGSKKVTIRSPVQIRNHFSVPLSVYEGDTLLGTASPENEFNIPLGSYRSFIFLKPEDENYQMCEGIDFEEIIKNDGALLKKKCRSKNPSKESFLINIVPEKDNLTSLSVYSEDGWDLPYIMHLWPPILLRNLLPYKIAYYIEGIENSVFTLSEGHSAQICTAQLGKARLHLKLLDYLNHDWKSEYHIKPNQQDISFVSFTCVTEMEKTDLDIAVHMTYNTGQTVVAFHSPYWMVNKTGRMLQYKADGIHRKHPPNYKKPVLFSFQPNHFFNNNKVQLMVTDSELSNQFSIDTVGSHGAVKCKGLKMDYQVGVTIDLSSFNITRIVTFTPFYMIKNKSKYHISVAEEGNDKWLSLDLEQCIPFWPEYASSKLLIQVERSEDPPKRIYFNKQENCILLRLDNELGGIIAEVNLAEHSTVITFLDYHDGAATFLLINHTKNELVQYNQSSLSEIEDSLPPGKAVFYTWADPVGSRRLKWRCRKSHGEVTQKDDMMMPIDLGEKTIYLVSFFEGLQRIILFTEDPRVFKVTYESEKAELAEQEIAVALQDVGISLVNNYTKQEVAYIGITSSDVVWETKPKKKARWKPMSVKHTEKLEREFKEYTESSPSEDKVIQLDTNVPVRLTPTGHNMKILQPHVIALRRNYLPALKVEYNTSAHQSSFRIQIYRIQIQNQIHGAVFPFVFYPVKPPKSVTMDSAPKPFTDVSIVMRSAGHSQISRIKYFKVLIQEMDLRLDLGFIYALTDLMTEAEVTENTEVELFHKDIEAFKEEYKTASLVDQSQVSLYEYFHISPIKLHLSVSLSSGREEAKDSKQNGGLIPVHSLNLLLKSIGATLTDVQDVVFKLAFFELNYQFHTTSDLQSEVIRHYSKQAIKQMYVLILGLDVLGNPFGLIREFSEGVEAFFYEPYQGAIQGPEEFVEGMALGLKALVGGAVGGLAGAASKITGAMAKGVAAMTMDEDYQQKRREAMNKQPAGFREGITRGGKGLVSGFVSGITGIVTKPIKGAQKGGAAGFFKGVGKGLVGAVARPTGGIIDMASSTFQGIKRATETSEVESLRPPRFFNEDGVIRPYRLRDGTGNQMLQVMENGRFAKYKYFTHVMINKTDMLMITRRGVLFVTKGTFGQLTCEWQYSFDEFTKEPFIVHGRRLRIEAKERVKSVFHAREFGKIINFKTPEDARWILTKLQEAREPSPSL

binding result [1]: binds
binding result [2]: binds
binding result [3]: binds
B1: LZTR1-FLAG (other, human, UniProt Q8N653 1-840, looked up)
chain: MAGPGSTGGQIGAAALAGGARSKVAPSVDFDHSCSDSVEYLTLNFGPFETVHRWRRLPPCDEFVGARRSKHTVVAYKDAIYVFGGDNGKTMLNDLLRFDVKDCSWCRAFTTGTPPAPRYHHSAVVYGSSMFVFGGYTGDIYSNSNLKNKNDLFEYKFATGQWTEWKIEGRLPVARSAHGATVYSDKLWIFAGYDGNARLNDMWTIGLQDRELTCWEEVAQSGEIPPSCCNFPVAVCRDKMFVFSGQSGAKITNNLFQFEFKDKTWTRIPTEHLLRGSPPPPQRRYGHTMVAFDRHLYVFGGAADNTLPNELHCYDVDFQTWEVVQPSSDSEVGGAEVPERACASEEVPTLTYEERVGFKKSRDVFGLDFGTTSAKQPTQPASELPSGRLFHAAAVISDAMYIFGGTVDNNIRSGEMYRFQFSCYPKCTLHEDYGRLWESRQFCDVEFVLGEKEECVQGHVAIVTARSRWLRRKITQARERLAQKLEQEAAPVPREAPGVAAGGARPPLLHVAIREAEARPFEVLMQFLYTDKIKYPRKGHVEDVLLIMDVYKLALSFQLCRLEQLCRQYIEASVDLQNVLVVCESAARLQLSQLKEHCLNFVVKESHFNQVIMMKEFERLSSPLIVEIVRRKQQPPPRTPLDQPVDIGTSLIQDMKAYLEGAGAEFCDITLLLDGHPRPAHKAILAARSSYFEAMFRSFMPEDGQVNISIGEMVPSRQAFESMLRYIYYGEVNMPPEDSLYLFAAPYYYGFYNNRLQAYCKQNLEMNVTVQNVLQILEAADKTQALDMKRHCLHIIVHQFTKVSKLPTLRSLSQQLLLDIIDSLASHISDKQCAELGADI
notes: Expressed in HEK 293T, HeLa or U87 cells; used as cell lysate; also called LZTR1 wild type-FLAG; LZTR1 WT; not shown: FLAG tag at the C-terminus
